One series deals with T1, Dut80α (Dubowvirus dv80alpha, UniProt A4ZF98).
T1 construct: pET28a, His-tagged, E. coli BL21 (DE3), HisTrap and size exclusion; homotrimer; last residues cited about 170
The series is described as follows: thermal shift (Sypro Orange). The class given is binding. The following applies: 1 mM dUPNPP, 5 mM MgCl2, 10 μM protein, 75 mM HEPES pH 7.5, 250 mM NaCl; absolute Tm, not a shift; decimal comma as printed. The text has this: thermal shift (Sypro Orange) on Dut80α

For series [1], the system named is O=c1ccn([C@H]2C[C@H](O)[C@@H](COP(=O)(O)OP(=O)(O)OP(=O)(O)O)O2)c(=O)[nH]1. Description: malachite green phosphate assay. Type of series: biochemical, Dubowvirus dv80alpha. The following applies: pH 7.5. The source says: malachite green phosphate assay on Dut80α
The target of series [2] is phage 80α dUTPase D95E mutant (Dut80α D95E) (Staphylococcus aureus phage 80α). Description: BLI.
Series [3] shares this target. Description: crystal structure.

In the case of `O=c1ccn([C@H]2C[C@H](O)[C@@H](COP(=O)(O)NP(=O)(O)OP(=O)(O)O)O2)c(=O)[nH]1` [dUPNPP, 2′-Deoxyuridine-5′-[(α,β)-imido]triphosphate], at Dut80α, the “Thermal Unfolding (°C) / +dUPNPP” value was 58 ± 0,09.

Regarding (Dubowvirus dv80alpha), the Michaelis constant (Km) in series [1] worked out at 7.5 µM.

In series [2], “Stl repressor from SaPIbov1 (natural protein)” had a Kd above 1000 µM.

In turn, “phage 80α dUTPase D95E mutant (Dut80α D95E) (enzyme)” had a stoichiometry N in series [3] of 3.
